Assay results: patent US20240254246A1 (PROMETHEUS BIOSCIENCES, published 2024)
Read-outs that look alike come from different tables or passages of the source.

T1: human CD30L expressed on cells (human, UniProt P32971 1-234)
T1 construct: whole, on cells; also called huCD30L; B16-huCD30L cells
T1 sequence (looked up): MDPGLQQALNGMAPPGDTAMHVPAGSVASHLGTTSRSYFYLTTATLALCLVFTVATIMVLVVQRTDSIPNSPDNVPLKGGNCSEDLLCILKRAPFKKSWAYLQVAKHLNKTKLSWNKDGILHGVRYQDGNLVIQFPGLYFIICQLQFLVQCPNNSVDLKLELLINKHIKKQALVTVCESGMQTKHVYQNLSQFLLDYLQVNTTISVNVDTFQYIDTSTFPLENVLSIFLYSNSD

T2: cynomolgus CD30L expressed on HEK293 cells (cynomolgus, UniProt A0A7N9CVX7 1-234)
T2 sequence: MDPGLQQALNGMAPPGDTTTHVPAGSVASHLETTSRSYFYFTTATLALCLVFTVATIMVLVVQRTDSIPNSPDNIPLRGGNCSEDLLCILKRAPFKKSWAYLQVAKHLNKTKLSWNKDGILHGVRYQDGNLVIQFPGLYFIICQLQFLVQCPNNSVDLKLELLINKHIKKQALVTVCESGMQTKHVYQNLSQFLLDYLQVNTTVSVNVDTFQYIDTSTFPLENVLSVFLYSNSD

T3: recombinant human CD30L protein (human, UniProt P32971 63-234)
T3 construct: Recombinant protein used in ELISA; also called huCD30L
T3 sequence (looked up): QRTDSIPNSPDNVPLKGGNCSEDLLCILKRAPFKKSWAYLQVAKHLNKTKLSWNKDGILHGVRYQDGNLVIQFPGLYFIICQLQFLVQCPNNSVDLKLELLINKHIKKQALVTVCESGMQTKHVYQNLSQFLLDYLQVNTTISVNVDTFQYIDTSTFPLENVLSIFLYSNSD

T4: recombinant cynomolgus CD30L protein (cynomolgus, UniProt A0A7N9CVX7 63-234)
T4 construct: Recombinant protein used in ELISA; also called cyCD30L
T4 sequence: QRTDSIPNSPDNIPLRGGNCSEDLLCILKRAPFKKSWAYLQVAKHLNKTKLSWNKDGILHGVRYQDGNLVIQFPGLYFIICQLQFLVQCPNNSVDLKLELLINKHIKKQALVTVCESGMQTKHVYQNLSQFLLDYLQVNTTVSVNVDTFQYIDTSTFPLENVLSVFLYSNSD

T5: recombinant human CD30L protein (human, UniProt P32971 63-234)
T5 construct: also called rhCD30L; huCD30L (ELISA)
T5 sequence (looked up): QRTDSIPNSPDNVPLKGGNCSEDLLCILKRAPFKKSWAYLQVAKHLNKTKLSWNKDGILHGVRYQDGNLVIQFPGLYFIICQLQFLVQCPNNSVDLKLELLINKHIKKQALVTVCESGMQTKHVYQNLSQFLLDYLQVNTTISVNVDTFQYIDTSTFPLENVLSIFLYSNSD

T6: cynomolgus CD30L expressed on cells (cynomolgus, UniProt A0A7N9CVX7 1-234)
T6 construct: whole, on cells; also called cyCD30L; HEK293-cyCD30L
T6 sequence: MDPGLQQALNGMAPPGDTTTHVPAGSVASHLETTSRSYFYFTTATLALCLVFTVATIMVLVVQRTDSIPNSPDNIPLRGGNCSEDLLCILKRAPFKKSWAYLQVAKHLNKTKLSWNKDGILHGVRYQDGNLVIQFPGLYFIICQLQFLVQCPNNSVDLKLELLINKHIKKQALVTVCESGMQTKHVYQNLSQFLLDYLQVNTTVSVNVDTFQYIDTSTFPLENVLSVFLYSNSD

T7: human CD30L expressed on cells (human, UniProt P32971 1-234)
T7 construct: also called huCD30L; B16-huCD30L
T7 sequence: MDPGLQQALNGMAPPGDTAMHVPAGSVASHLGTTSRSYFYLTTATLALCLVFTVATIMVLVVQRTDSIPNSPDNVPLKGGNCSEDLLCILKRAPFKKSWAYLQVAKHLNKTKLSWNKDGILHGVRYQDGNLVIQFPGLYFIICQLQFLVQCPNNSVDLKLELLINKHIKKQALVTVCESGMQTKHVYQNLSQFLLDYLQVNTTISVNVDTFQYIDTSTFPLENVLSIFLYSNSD

T8: cynomolgus CD30L expressed on HEK293 cells (cynomolgus, UniProt A0A7N9CVX7 1-234)
T8 construct: whole, on cells; also called HEK293-cyCD30L; HEK-cyCD30L
T8 sequence: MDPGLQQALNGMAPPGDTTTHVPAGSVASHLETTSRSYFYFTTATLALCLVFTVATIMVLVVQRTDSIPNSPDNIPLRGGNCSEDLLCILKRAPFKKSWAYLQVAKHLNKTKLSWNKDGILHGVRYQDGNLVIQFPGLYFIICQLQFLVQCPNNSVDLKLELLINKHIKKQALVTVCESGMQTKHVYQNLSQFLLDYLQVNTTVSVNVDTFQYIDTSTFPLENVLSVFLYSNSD

T9: human CD30L expressed on B16 cells (human, UniProt P32971 1-234)
T9 sequence (looked up): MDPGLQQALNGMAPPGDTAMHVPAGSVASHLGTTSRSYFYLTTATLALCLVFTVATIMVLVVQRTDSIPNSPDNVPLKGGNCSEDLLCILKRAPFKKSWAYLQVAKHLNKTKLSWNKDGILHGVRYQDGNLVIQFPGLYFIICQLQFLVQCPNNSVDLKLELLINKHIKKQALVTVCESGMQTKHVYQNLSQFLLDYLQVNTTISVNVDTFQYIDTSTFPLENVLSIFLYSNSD


Experiments:
[1] = target: T1, human CD30L expressed on cells; test: flow cytometry, B16-huCD30L cells
Procedure: Anti-CD30L antibody binding to a CD30L target was determined by flow cytometry, using B16 cells transfected to express human CD30L (compared to non-transfected B16), and using HEK293 cells transfected to express cynomolgus CD30L (compared to non-transfected HEK293). […] Cell surface bound antibodies were detected using a fluorescently labeled anti-human-IgG or anti-mouse IgG, depending on the Fc portion of the antibodies. After incubation with the secondary antibody, the cells were washed, fixed in a paraformaldehyde solution, and analyzed by flow cytometry to detect antibody binding.

[2] = target: T1, human CD30L expressed on cells; test: flow cytometry, blocking of huCD30 binding to B16-huCD30L cells
[3] = target: T2, cynomolgus CD30L expressed on HEK293 …; test: cell-based or functional assay
[4] = target: T1, human CD30L expressed on cells; test: cell-based or functional assay
[5] = target: T3, recombinant human CD30L protein; test: ELISA, CD30 competitor, 1/1000 dil
[6] = target: T4, recombinant cynomolgus CD30L protein; test: ELISA, 1/5000 dil
[7] = target: T3, recombinant human CD30L protein; test: ELISA, CD30 competitor, undil
[8] = target: T3, recombinant human CD30L protein; test: ELISA, CD30 competitor, 1/100 dil
[9] = target: T4, recombinant cynomolgus CD30L protein; test: ELISA, 1/50 dil
[10] = target: T3, recombinant human CD30L protein; test: ELISA, CD30 competitor, 1/10 dil
[11] = target: T4, recombinant cynomolgus CD30L protein; test: ELISA, 1/500 dil
[12] = target: T5, recombinant human CD30L protein; test: ELISA, huCD30L, 1/50 dil
[13] = target: T5, recombinant human CD30L protein; test: ELISA, huCD30L, 1/500 dil
[14] = target: T5, recombinant human CD30L protein; test: ELISA, huCD30L, 1/5000 dil
[15] = target: T6, cynomolgus CD30L expressed on cells; test: flow cytometry, cyCD30L cells, 1/50 dil
[16] = target: T7, human CD30L expressed on cells; test: flow cytometry, huCD30L cells, 1/50 dil
[17] = target: T8, cynomolgus CD30L expressed on HEK293 …; test: flow cytometry, blocking of CD30-Fc on HEK293-cyCD30L cells; competitor CD30-Fc
[18] = target: T8, cynomolgus CD30L expressed on HEK293 …; test: cell-based or functional assay; remark: listed apart in the source
[19] = target: T9, human CD30L expressed on B16 cells; test: cell-based or functional assay
[20] = target: T8, cynomolgus CD30L expressed on HEK293 …; test: flow cytometry, binding to HEK293-cyCD30L cells
[21] = target: T9, human CD30L expressed on B16 cells; test: flow cytometry, binding to B16-rhCD30L cells
[22] = target: T9, human CD30L expressed on B16 cells; test: flow cytometry, blocking of CD30-Fc on B16-huCD30L cells; competitor CD30-Fc

Binder	EC50 [1]	IC50 [2]	Inhibition of IL-8 release in a dual cell assay (HEK293-cyCD30L cells + K299 cells) IC50 [3]	Inhibition of IL-8 release in a dual cell assay (B16-huCD30L cells + K299 cells) IC50 [4]	OD [12]	OD [13]	OD [14]	MFI [15]	MFI [16]	other results
Clone 1, Mouse IgG (antibody, V domains shown, Mouse IgG format) VH: QVQLQESGPGLVKPSETLSLTCTVSGGSISGYYWSWIRQPPVKGLEWIGYIFYSGYTKYNPSLKSRVTISVDTSKNQFSLKLSSVTAADTAVYYCARDRWDFDYWGQGALVTVSS VL: AIQMTQSPSYLSASVGDRVTIACRASQGIRNNLGWYQQKPGKAPKLLIYAESSLQSGVPSRFSGSGSGTDFTLTISSLQPEDFATYYCLQDFNYPYTFGQGTKLEIK	1.95 nM	3.06 nM	0.55 nM	1.99 nM	–	–	–	–	–	–
Clone 3 (antibody, V domains shown, Hybridoma screening sample; also called CLONE_3 (parental)) VH: QVQLQESGPGLVKPSETLSLTCTVSGGSISGYYWSWIRQPPVKGLEWIGYIFYSGYTKYNPSLKSRVTISVDTSKNQFSLKLSSVTAADTAVYYCARDRWDFDYWGQGALVTVSS VL: not shown	–	–	–	–	–	–	–	–	–	% inhibition [5]: 3%; Elisa Binding (OD) [6]: 0.552 OD; % inhibition [7]: 98%; % inhibition [8]: 17%; Elisa Binding (OD) [9]: 3.2 OD; % inhibition [10]: 95%; Elisa Binding (OD) [11]: 2.35 OD
Clone 1, Human IgG1 (antibody, V domains shown, Human IgG1 format) VH: QVQLQESGPGLVKPSETLSLTCTVSGGSISGYYWSWIRQPPVKGLEWIGYIFYSGYTKYNPSLKSRVTISVDTSKNQFSLKLSSVTAADTAVYYCARDRWDFDYWGQGALVTVSS VL: AIQMTQSPSYLSASVGDRVTIACRASQGIRNNLGWYQQKPGKAPKLLIYAESSLQSGVPSRFSGSGSGTDFTLTISSLQPEDFATYYCLQDFNYPYTFGQGTKLEIK	1.41 nM	1.35 nM	0.22 nM	1.1 nM	–	–	–	–	–	–
anti-CD30L clone 3 (antibody, V domains shown) VH: QVQLQESGPGLVKPSETLSLTCTVSGGSISGYYWSWIRQPPVKGLEWIGYIFYSGYTKYNPSLKSRVTISVDTSKNQFSLKLSSVTAADTAVYYCARDRWDFDYWGQGALVTVSS VL: not shown	–	–	–	–	3.5 OD	2.54 OD	0.662 OD	72.4 MFI	153 MFI	–
anti-CD30L clone 1 (antibody, V domains shown, From mice with humanized immunoglobulin locus; elsewhere tested as mouse IgG and human IgG1; also called clone 1 parental) VH: QVQLQESGPGLVKPSETLSLTCTVSGGSISGYYWSWIRQPPVKGLEWIGYIFYSGYTKYNPSLKSRVTISVDTSKNQFSLKLSSVTAADTAVYYCARDRWDFDYWGQGALVTVSS VL: AIQMTQSPSYLSASVGDRVTIACRASQGIRNNLGWYQQKPGKAPKLLIYAESSLQSGVPSRFSGSGSGTDFTLTISSLQPEDFATYYCLQDFNYPYTFGQGTKLEIK	–	–	–	–	3.59 OD	3.02 OD	1.28 OD	77.3 MFI	208 MFI	–
anti-CD30L clone 4 (antibody, V domains shown) VH: QVQLVESGGGVVQPGRSLRLSCAASGFPFSSYGMHWVRQAPGKGLEWVTFIWFDGNNKDYADSVKGRFSVSRDNSKNTLYLQMNSLRADDTAVYYCARNGVYYGSGAYVDYWGQGTLVTVSS VL: not shown	–	–	–	–	3.08 OD	2.65 OD	0.68 OD	67.8 MFI	151 MFI	–
Clone 2, Mouse IgG (antibody, V domains shown, Mouse IgG format) VH: EVQLVESGGGLVQPGRSLRLSCAASGFNFDDYAMHWVRQAPGKGLEWVSGISWRSGNIGYAGSVKGRFTISRDNAKNSLYLQMNSLRPEDSALYYCAKDKGIGFNWNYEGFDYWGQGTLVTVSS VL: DIQMTQSPSSLSASVGDRVTITCRASQGISNHLAWFQQKPGKAPKSLIYAASSLQSGVPSKFSGSGSGTDFTLTISSLQPEDFATYYCQQYVTYPLTFGGGTKVEIK	1.21 nM	1.84 nM	0.46 nM	1.2 nM	–	–	–	–	–	–
Clone 2, Human IgG1 (antibody, V domains shown, Human IgG1 format) VH: EVQLVESGGGLVQPGRSLRLSCAASGFNFDDYAMHWVRQAPGKGLEWVSGISWRSGNIGYAGSVKGRFTISRDNAKNSLYLQMNSLRPEDSALYYCAKDKGIGFNWNYEGFDYWGQGTLVTVSS VL: DIQMTQSPSSLSASVGDRVTITCRASQGISNHLAWFQQKPGKAPKSLIYAASSLQSGVPSKFSGSGSGTDFTLTISSLQPEDFATYYCQQYVTYPLTFGGGTKVEIK	0.81 nM	0.86 nM	0.24 nM	0.6 nM	–	–	–	–	–	–
anti-CD30L clone 2 (antibody, V domains shown, From mice with humanized immunoglobulin locus; elsewhere tested as mouse IgG and human IgG1; also called clone 2 parental) VH: EVQLVESGGGLVQPGRSLRLSCAASGFNFDDYAMHWVRQAPGKGLEWVSGISWRSGNIGYAGSVKGRFTISRDNAKNSLYLQMNSLRPEDSALYYCAKDKGIGFNWNYEGFDYWGQGTLVTVSS VL: DIQMTQSPSSLSASVGDRVTITCRASQGISNHLAWFQQKPGKAPKSLIYAASSLQSGVPSKFSGSGSGTDFTLTISSLQPEDFATYYCQQYVTYPLTFGGGTKVEIK	–	–	–	–	2.15 OD	1.71 OD	0.565 OD	57.6 MFI	280 MFI	–
anti-CD30L Reference 1 antibody (antibody, human IgG1, lambda, V domains shown) VH: QVQLQESGPGLVKPSETLSLTCTVSGGSISSYIWSWIRQPAGKGLEWIGRIYASGNTNYNPSLKSRVTISVDTSKNQFSLKLSSMTAADTAVYYCARDYRVAGTYYYYYGLDVWGQGTTVTVSS VL: QSALTQPASVSGSPGQSITISCTGTSSDVGVYDYVSWYQQHPGKAPKLMIYEVSNRPSGVSNRFSGSKSGNTASLTISGLQTEDEADYYCSSYTSRSTWVFGGGTKLTVLG	–	–	–	–	–	–	–	–	–	IC50 [17]: 0.73 nM; Inhibition of IL-8 release in a dual cell assay (HEK293-cyCD30L cells + K299 cells) IC50 [18]: 0.79 nM; Inhibition of IL-8 release in a dual cell assay (B16-huCD30L cells + K299 cells) IC50 [19]: 1.61 nM; EC50 [20]: 0.56 nM; EC50 [21]: 1.12 nM; IC50 [22]: 1.84 nM
